Test results published in US20170052184A1.

Experiments:
[1] = molecular target: HCV Core Peptide # 51 (aa 101-115) (hepatitis C virus); test: peptide EIA summary (Table 11), peptide 51, aa 101-115
[2] = molecular target: HCV Core Peptide # 55 (aa 109-123) (hepatitis C virus); test: EIA on coated peptide 55 (well G7); IgG 2 ug/mL
[3] = molecular target: HCV Core Peptide # 52 (aa 103-117) (hepatitis C virus); test: peptide EIA summary (Table 11), peptide 52, aa 103-117
[4] = molecular target: HCV Core Peptide # 53 (aa 105-119) (hepatitis C virus); test: EIA on coated peptide 53 (well E7); IgG 2 ug/mL
[5] = molecular target: HCV Core Peptide # 50 (aa 99-113) (hepatitis C virus); test: EIA on coated peptide 50 (well B7); IgG 2 ug/mL
[6] = molecular target: HCV Core Peptide # 48 (aa 95-109) (hepatitis C virus); test: EIA on coated peptide 48 (well H6); IgG 2 ug/mL
[7] = molecular target: HCV Core Peptide # 54 (aa 107-121) (hepatitis C virus); test: peptide EIA summary (Table 11), peptide 54, aa 107-121
[8] = molecular target: HCV Core Peptide # 50 (aa 99-113) (hepatitis C virus); test: peptide EIA summary (Table 11), peptide 50, aa 99-113
[9] = molecular target: HCV Core Peptide # 54 (aa 107-121) (hepatitis C virus); test: EIA on coated peptide 54 (well F7); IgG 2 ug/mL
[10] = molecular target: HCV Core Peptide # 49 (aa 97-111) (hepatitis C virus); test: peptide EIA summary (Table 11), peptide 49, aa 97-111
[11] = molecular target: HCV Core Peptide # 52 (aa 103-117) (hepatitis C virus); test: EIA on coated peptide 52 (well D7); IgG 2 ug/mL
[12] = molecular target: HCV Core Peptide # 55 (aa 109-123) (hepatitis C virus); test: peptide EIA summary (Table 11), peptide 55, aa 109-123
[13] = molecular target: HCV Core Peptide # 48 (aa 95-109) (hepatitis C virus); test: peptide EIA summary (Table 11), peptide 48, aa 95-109
[14] = molecular target: HCV Core Peptide # 53 (aa 105-119) (hepatitis C virus); test: peptide EIA summary (Table 11), peptide 53, aa 105-119
[15] = molecular target: HCV Core Peptide # 51 (aa 101-115) (hepatitis C virus); test: EIA on coated peptide 51 (well C7); IgG 2 ug/mL
[16] = molecular target: HCV Core Peptide # 49 (aa 97-111) (hepatitis C virus); test: EIA on coated peptide 49 (well A7); IgG 2 ug/mL
[17] = molecular target: HCV Core1-169 recombinant antigen (hepatitis C virus (HCV-1)) (UniProt P26664); test: sandwich EIA, 25 ng/ml core1-169; capture mAb 208B-395-334
Chain of HCV Core1-169 recombinant antigen (hepatitis C virus (HCV-1)) (P26664 1-169, tags left off): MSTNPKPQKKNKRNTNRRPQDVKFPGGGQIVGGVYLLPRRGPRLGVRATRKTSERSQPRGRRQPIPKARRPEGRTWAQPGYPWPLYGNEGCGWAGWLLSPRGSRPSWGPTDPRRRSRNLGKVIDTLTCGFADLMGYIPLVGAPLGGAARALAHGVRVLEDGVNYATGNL

[18] = molecular target: HCV Core1-169 recombinant antigen (hepatitis C virus (HCV-1)) (UniProt P26664); test: sandwich EIA, 25 ng/ml core1-169; capture mAb 208A-692
[19] = molecular target: HCV Core1-169 recombinant antigen (hepatitis C virus (HCV-1)) (UniProt P26664); test: sandwich EIA, 25 ng/ml core1-169; capture mAb 208A-557
[20] = molecular target: HCV Core1-169 recombinant antigen (hepatitis C virus (HCV-1)) (UniProt P26664); test: sandwich EIA, 25 ng/ml core1-169; capture mAb 208A-110
[21] = molecular target: HCV Core1-169 recombinant antigen (hepatitis C virus (HCV-1)) (UniProt P26664); test: sandwich EIA, 25 ng/ml core1-169; capture mAb C11-9
[22] = molecular target: HCV Core1-169 recombinant antigen (hepatitis C virus (HCV-1)) (UniProt P26664); test: sandwich EIA, 25 ng/ml core1-169; capture mAb 208A-293
[23] = molecular target: HCV Core1-169 recombinant antigen (hepatitis C virus (HCV-1)) (UniProt P26664); test: sandwich EIA, 25 ng/ml core1-169; capture mAb 208B-612-226
[24] = molecular target: HCV Core1-169 recombinant antigen (hepatitis C virus (HCV-1)) (UniProt P26664); test: sandwich EIA, 25 ng/ml core1-169; capture mAb 208B-1096
[25] = molecular target: HCV Core1-169 recombinant antigen (hepatitis C virus (HCV-1)) (UniProt P26664); test: sandwich EIA, 25 ng/ml core1-169; capture mAb 208B-741
[26] = molecular target: HCV Core1-169 recombinant antigen (hepatitis C virus (HCV-1)) (UniProt P26664); test: sandwich EIA, 25 ng/ml core1-169; capture mAb 208A-207-271
[27] = molecular target: HCV Core1-169 recombinant antigen (hepatitis C virus (HCV-1)) (UniProt P26664); test: sandwich EIA, 25 ng/ml core1-169; capture mAb C11-7
[28] = molecular target: HCV Core1-169 recombinant antigen (hepatitis C virus (HCV-1)) (UniProt P26664); test: sandwich EIA, 25 ng/ml core1-169; capture NC capture mAb

Substance | OD492 nm [17] | OD492 nm [18] | OD492 nm [19] | OD492 nm [20] | OD492 nm [21] | OD492 nm [22] | OD492 nm [23] | OD492 nm [24] | OD492 nm [25] | OD492 nm [26] | OD492 nm [27] | OD492 nm [28] | other results
C11-3 (ABT-4) monoclonal antibody |  |  |  |  |  |  |  |  |  |  |  |  | OD (A492 nm) [1]: 1.01 OD (A492 nm); OD (A492 nm) [2]: 0.06 OD; OD (A492 nm) [3]: 1.01 OD (A492 nm); OD (A492 nm) [4]: 0.36 OD; OD (A492 nm) [5]: 0.97 OD; OD (A492 nm) [6]: 0.81 OD; OD (A492 nm) [7]: 0.08 OD (A492 nm); OD (A492 nm) [8]: 1.03 OD (A492 nm); OD (A492 nm) [9]: 0.08 OD; OD (A492 nm) [10]: 1.03 OD (A492 nm); OD (A492 nm) [11]: 0.96 OD; OD (A492 nm) [12]: 0.08 OD (A492 nm); OD (A492 nm) [13]: 0.95 OD (A492 nm); OD (A492 nm) [14]: 0.36 OD (A492 nm); OD (A492 nm) [15]: 1 OD; OD (A492 nm) [16]: 0.97 OD
anti-HCV Core C11-7 monoclonal antibody | 0.46 OD492 | 0.18 OD492 | 0.64 OD492 | 1.78 OD492 | 1.04 OD492 | 1.55 OD492 | 0.53 OD492 | 0.45 OD492 | 1.76 OD492 | 0.22 OD492 | 0.23 OD492 | 0.22 OD492 | 
anti-HCV Core C11-9 monoclonal antibody | 0.95 OD492 | 0.58 OD492 | 1.18 OD492 | 2.59 OD492 | 2.75 OD492 | 1.84 OD492 | 0.63 OD492 | 0.82 OD492 | 2.32 OD492 | 0.44 OD492 | 1.91 OD492 | 0.62 OD492 | 
negative control (NC) monoclonal antibody | 0.22 OD492 | 0.15 OD492 | 0.18 OD492 | 0.16 OD492 | 0.14 OD492 | 0.23 OD492 | 0.22 OD492 | 0.21 OD492 | 0.18 OD492 | 0.17 OD492 | 0.17 OD492 | 0.18 OD492 | 
